Results taken from the nanobody polyreactivity screen of Harvey et al. (2022).

Test: yeast display, Sf9 membrane polyspecificity reagent, FACS + sequencing; frameworks hold sequencing errors
Outline: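 Sorting gates, low and high (top ~1%), were placed on anti-HA fluorescence to track expression and on streptavidin fluorescence to track reagent binding. A clone's polyreactivity label is taken from the gate it came out of. The reagent was 10% biotinylated, detergent-solubilized Sf9 membrane, applied for 1 hour at 4 °C to galactose-induced yeast display cells.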

Question: Which “polyreactivity (PSR sort gate)” value does the source give for “QVQLEESGGGLVQAGGSLRLSCAASGFTFDANAMGWYRQAPGKERELVAAISSGGGSTYYADSVKGRFTISRDNPKNTVYLQMNSLKPEDTAVYYCAKVYLVYKSYPYDYWGLGTQVTVSS” here?
Answer: high polyreactivity

Question: With “QVQLVESGGGLVQAGGRLRLSCAASGSIVGLYVMGWYRQAPGKERELVATITSGGSTYYADSVKGRFTISRDNAKNTDYLQMNSLKPEDTAVYYSAADPQDAADLPDLFYDYDYWGQGTQVTVSS” as the sequence, how does the “polyreactivity (PSR sort gate)” value read?
Answer: low polyreactivity

Question: Which “polyreactivity (PSR sort gate)” value does the source give for “QVQLVESGGGLVQAGGSLRLSCAASGNIFVGNDMGWYRQAPGKERELVAAISSGDTTSYADSVKGRFTISRDNAKNTVYLQMNSLKPEDTAVYYCNTDAPYLLWFTNRYDYWGQGTQVTVSS” here?
Answer: low polyreactivity

Question: With “QVQLVESGGGLVQAGGSLRLSCAASGSIFPVYAMGWYRQAPGKERELVATIRSGGARTYYADSVKGRFTISRDNAKNTVYLQMNSLKPEDTAVYYCATRWPHYGGYYYWGQGTQVTVSS” as the sequence, how does the “polyreactivity (PSR sort gate)” value read?
Answer: high polyreactivity

Question: With “QVQLVESGGGLVQAGGSLRLSCAASGSTFIVKAMGWYRHAPGKERELVAAITEDGDTTYYADSVKGRFTISRDNAKKTVYLQMNSLKPEDTAVYYCAAETYYLDDYWGQGTQVTVSS” as the sequence, how does the “polyreactivity (PSR sort gate)” value read?
Answer: high polyreactivity

Question: For “QLQLVESGGGLVQAGGSLRLSCGASGFTFYVYAMGWSRQAPGKERELVAAISKSGGSTYYADSVKGRFTISRDHATNTVDLQMTSLKPEDTAVYSCAVFDNRSGYRGGHRYNSWGQATQVTVSS”, which “polyreactivity (PSR sort gate)” value is on record?
Answer: high polyreactivity

Question: With “QVQLVESGGGLVQAGGSLRLSCAASGFTFITYAMGGHRQAPGKERELVAAIRTGGGTNYADSVKGRFTISRDNAKNTVYLQMNSLKPEDTAVYYCAKGRQGVSYLTGTYGCRYYWGQGTQVTVSS” as the sequence, how does the “polyreactivity (PSR sort gate)” value read?
Answer: low polyreactivity

Question: Which “polyreactivity (PSR sort gate)” value does the source give for “QVQLVESGGGLVQAGGSLRLSCAASGSIFSWYAMGSYTQAPGKESELVAAITRGGSTYADSVKGRFTISRDNAKNTVYLQMNSLKPEDTAVYYCNAVYGVYDFNYWGQGTQVTVSS” here?
Answer: low polyreactivity

Question: Which “polyreactivity (PSR sort gate)” value does the source give for “QVQRVESGGGLVQAGASLRLSCAASGRTFRSYTMGWYRQAPGKERELVATISGSGSTNYADSVKGRFTISRDNAKITVYLQMNSLKPEDTAVYYCAADVSLSVFKLDYWGQGTQVTVSS” here?
Answer: low polyreactivity

Question: For “QVQLQESGGGLVQAGGSLRLSCAASGTIFTARFMGWYRQAPGKERELVATITDGGNTNHADSVKGRFTISRDNAKNTVYLQMNSLKPEDAAVDYCAAGEVDNDTLLYWGQGSQVTVSS”, which “polyreactivity (PSR sort gate)” value is on record?
Answer: low polyreactivity

Question: With “QVQLVESGGGLVQAGGSLRLSRAASGRTFRTYAMGWYRQAPGKERELVAAITSGGNTYYADSVKGRFTISRDNAKNTVYLLMNSLKPDDTAVYYCAAAASGFSRYRSTTWGQGTQGTVSS” as the sequence, how does the “polyreactivity (PSR sort gate)” value read?
Answer: high polyreactivity

Question: For “QDQLVESGGGLVQAGGSLRLSCAASGRTFEGNAMGWYRQAPGKERELVAAITSGGRTNYADSVKGRFTISRDNAKNTVYLQMNSLKPEDTEVYYCANVYRSIGPNVSRYGLSYYYWGQGTQVTVSS”, which “polyreactivity (PSR sort gate)” value is on record?
Answer: low polyreactivity

Question: With “QVQLVESGGGLVQAGGSLRLSCAASGRTCWYKAMGWYRQAPGKERELVAPITSGGRTKYADSVKGRFTISRDNAKNTVYLQMNSLKPEDTAVYYCNTYNRRSGTLPKPYDYWGQGTQVTVSS” as the sequence, how does the “polyreactivity (PSR sort gate)” value read?
Answer: high polyreactivity

Question: With “QVQLVESGGGLVQAGGSLRLSCAASGSIFETYVMGWYRQAPGKERELVAAINSGGSTNYADSVKGRFTISRDNAKNTVYLQMNSLKPEDTAVYYCAAEWRGDRYRLYVVSWWYDYWGQGTQVTVSS” as the sequence, how does the “polyreactivity (PSR sort gate)” value read?
Answer: low polyreactivity

Question: Which “polyreactivity (PSR sort gate)” value does the source give for “QVQLVESGGGLVQAGGSLRLSCAASGSIFTGNTMGWYRQAPGKERELVAAISRRGGRTYYADSVKGRFTISRDNAKNTVYLQMNSLKPEDTAVYYCAALGRDSTPHGYWGQGTQVTVSS” here?
Answer: high polyreactivity

Question: Which “polyreactivity (PSR sort gate)” value does the source give for “QVQLVESGGGLVQAGGSLRLSCAASGSTFTGYAMGWYRQAPGKERELVAAISISGGRTFYADSVKGRFTISRDNAKNTVYLQMNSLKPEDTAVYYCAAYLRGSKYSFDYWGQGTQVTVSS” here?
Answer: high polyreactivity

Question: With “QVQLVESGGGLVQAGGSLRLSCAASGRNFSFNTMVWYIQAPRKERELVAAITSSSARTYYADSVKGRFTISRDNAKNTVYLQMNSLKPEDTAVDYCDTRDWVGSVRMGYWGQGTQVTVSS” as the sequence, how does the “polyreactivity (PSR sort gate)” value read?
Answer: high polyreactivity

Question: For “QVQLVESGGGLVQAGGSLRLSCAASGITYPGYAMGWYRQAPGKERELVAVIRKSGTSTYYADSVKGRFTISRDNAKNTVYLQMNSLKPEDTAVYYCAAGGPSTLDDYWGQGTQVTVSS”, which “polyreactivity (PSR sort gate)” value is on record?
Answer: low polyreactivity

Question: For “QLQLVESGGGLVQAGGSLSLSCAASGSTFDYYDMGWYRQAPGKERELFSYISWSGGSTRYADSVKGRYTISRDNAKNTVYLQMNSLKPEESAVYYCNKSNPDYDRLAIHAFDYWGQGTQLTVSS”, which “polyreactivity (PSR sort gate)” value is on record?
Answer: low polyreactivity

Question: Which “polyreactivity (PSR sort gate)” value does the source give for “QVQLVESGGGLVQAGGSLRLSCAASGSTSGKNAMGWYRQAPGKERELVAVITYSGSRTYYADSVKGRFTISRDNAKNTVYLQMNSLIPEDTAVYYCAAVGGGVSFRGNYWGQGTQVTVSS” here?
Answer: high polyreactivity

Question: With “QVQLVESGGGLVQAGGSLRLSCAASGSIFSYYAMGWYRQAPGKERELVAAISKRGASTYYADSVKGRFTISRDIAKNTVYLQMNSLKPEDTAVYYCAGYRQGSAYDYWGQGTQVTVSS” as the sequence, how does the “polyreactivity (PSR sort gate)” value read?
Answer: high polyreactivity

Question: Which “polyreactivity (PSR sort gate)” value does the source give for “QVQLVESGGGLVQAGGSLRLTCAASGLSSLRMLWDGIDRRLGKKGSWLPLLTSGGDSTNYADSVKGRFTISRDTAKNTVYLQIISLKPEDTAVYYCAADLDYPYGYWGQGTQVTVSS” here?
Answer: low polyreactivity
